Assays:
Assay in all cases: AUC
[1] = biological target: Nek2 leucine zipper construct LZ0 (residues 290-360) (UniProt P51955)
[2] = biological target: LZ5 K309C/C335A mutant of the Nek2 leucine zipper (UniProt P51955)
[3] = biological target: Nek2 core leucine zipper construct LZ5 (residues 299-343) (UniProt P51955)

## Nek2 leucine zipper construct LZ0 (residues 290-360) (from UniProt P51955 290-360) (domain or fragment)
[1]
  stoichiometry N: 2

## LZ5 K309C/C335A mutant of the Nek2 leucine zipper (from UniProt P51955 299-343) (domain or fragment)
[2]
  stoichiometry N: 2

## Nek2 core leucine zipper construct LZ5 (residues 299-343) (from UniProt P51955 299-343) (domain or fragment)
[3]
  stoichiometry N: 2
